Assay results reported in patent publication US20250276070A1 (HOSPITAL FOR SICK CHILDREN, published 2025).

Assays:
Assay in all cases: BLI, His-tagged receptor on Ni-NTA;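 also: octet RED96 biolayer interferometry of Fc-mutant Multabodies binding human FcγRI, FcγRIIa or FcγRIIb, with the His-tagged receptors captured on Ni-NTA biosensors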
[1] = target: T-01 MB IgG1 LALA P329G (LALAP)
Experimental: (§1) The binding kinetics and affinity to Fc receptors—human Fcγ receptor I (hFcγRI), hFcγRIIa, and hFcγRIIb—of Multabodies comprising different Fc mutations were determined by biolayer interferometry (BLI) using an Octet RED96 BLI system (Pall ForteBio).
(§2) Briefly, His-tagged Fc receptors were loaded onto Ni-NTA biosensors to reach a signal response of 0.8 nm.

T-01 MB IgG2 K288A P329G = target: T-01 MB IgG2 K288A P329G
Experimental: as §1, §2

T-01 MB IgG1 LALAP K288A = target: T1, T-01 MB IgG1 LALAP K288A
T1 construct: also called K288A+LALAP
Experimental: as §1, §2

T-01 MB IgG1 LALAP I253A = target: T2, T-01 MB IgG1 LALAP I253A
T2 construct: also called I253A+LALAP
Experimental: as §1, §2

T-01 MB.v2 IgG1 WT = target: T3, T-01 MB.v2 IgG1 WT
T3 construct: also called Multabody v2
Experimental: as §1, §2

[2] = target: T4, T-01 MB.v2 IgG1 M428L N434S (LS)
T4 construct: also called T-01 MB.v2 IgG1 LS
Experimental: as §1, §2

T-01 MB IgG1 WT = target: T5, T-01 MB IgG1 WT
T5 construct: also called T-01 MB with wild-type IgG1 Fc
Experimental: as §1, §2

T-01 MB IgG2 WT = target: T-01 MB IgG2 WT
Experimental: as §1, §2

T-01 MB IgG4 WT = target: T-01 MB IgG4 WT
Experimental: as §1, §2

T-01 MB IgG1 I253A = target: T-01 MB IgG1 I253A
Experimental: as §1, §2

T-01 MB IgG1 I253V = target: T-01 MB IgG1 I253V
Experimental: as §1, §2

T-01 MB IgG1 K288A = target: T-01 MB IgG1 K288A
Experimental: as §1, §2

T-01 MB IgG1 P329G = target: T-01 MB IgG1 P329G
Experimental: as §1, §2

[3] = target: T6, T-01 MB IgG1 L234A L235A (LALA)
T6 construct: also called T-01 MB IgG1 LALA
Experimental: as §1, §2

B1: human Fcγ receptor I (hFcγRI) (receptor, UniProt P12314 16-288, looked up)
chain: QVDTTKAVITLQPPWVSVFQEETVTLHCEVLHLPGSSSTQWFLNGTATQTSTPSYRITSASVNDSGEYRCQRGLSGRSDPIQLEIHRGWLLLQVSSRVFTEGEPLALRCHAWKDKLVYNVLYYRNGKAFKFFHWNSNLTILKTNISHNGTYHCSGMGKHRYTSAGISVTVKELFPAPVLNASVTSPLLEGNLVTLSCETKLLLQRPGLQLYFSFYMGSKTLRGRNTSSEYQILTARREDSGLYWCEAATEDGNVLKRSPELELQVLGLQLPTP
B1 was tested, and the Kd [1] was 0.684 nM, the koff [1] was 0.000437 s⁻¹ and the kon [1] was 639000 M⁻¹ s⁻¹. For the same binder, the Kd (T-01 MB IgG2 K288A P329G) was 0.132 nM, the koff (T-01 MB IgG2 K288A P329G) was 9.13e-05 s⁻¹ and the kon (T-01 MB IgG2 K288A P329G) was 694000 M⁻¹ s⁻¹. It also gave a Kd (T-01 MB IgG1 LALAP K288A) of 0.269 nM, a koff (T-01 MB IgG1 LALAP K288A) of 0.000161 s⁻¹ and a kon (T-01 MB IgG1 LALAP K288A) of 601000 M⁻¹ s⁻¹. The Kd (T-01 MB IgG1 LALAP I253A) was 0.768 nM, the koff (T-01 MB IgG1 LALAP I253A) was 0.000656 s⁻¹ and the kon (T-01 MB IgG1 LALAP I253A) was 853000 M⁻¹ s⁻¹. The Kd (T-01 MB.v2 IgG1 WT) was under 0.001 nM, the koff (T-01 MB.v2 IgG1 WT) was under 1e-07 s⁻¹ and the kon (T-01 MB.v2 IgG1 WT) was 312000 M⁻¹ s⁻¹. The Kd [2] was under 0.001 nM, the koff [2] was under 1e-07 s⁻¹ and the kon [2] was 431000 M⁻¹ s⁻¹. The Kd (T-01 MB IgG1 WT) was under 0.001 nM, the koff (T-01 MB IgG1 WT) was under 1e-07 s⁻¹ and the kon (T-01 MB IgG1 WT) was 672000 M⁻¹ s⁻¹. For the same binder, the Kd (T-01 MB IgG2 WT) was 2.03 nM, the koff (T-01 MB IgG2 WT) was 0.00154 s⁻¹ and the kon (T-01 MB IgG2 WT) was 758000 M⁻¹ s⁻¹. For the same binder, the Kd (T-01 MB IgG4 WT) was under 0.001 nM, the koff (T-01 MB IgG4 WT) was under 1e-07 s⁻¹ and the kon (T-01 MB IgG4 WT) was 835000 M⁻¹ s⁻¹. It also gave a Kd (T-01 MB IgG1 I253A) of under 0.001 nM, a koff (T-01 MB IgG1 I253A) of under 1e-07 s⁻¹ and a kon (T-01 MB IgG1 I253A) of 605000 M⁻¹ s⁻¹. For the same binder, the Kd (T-01 MB IgG1 I253V) was under 0.001 nM, the koff (T-01 MB IgG1 I253V) was under 1e-07 s⁻¹ and the kon (T-01 MB IgG1 I253V) was 756000 M⁻¹ s⁻¹. The Kd (T-01 MB IgG1 K288A) was under 0.001 nM, the koff (T-01 MB IgG1 K288A) was under 1e-07 s⁻¹ and the kon (T-01 MB IgG1 K288A) was 578000 M⁻¹ s⁻¹. For the same binder, the Kd (T-01 MB IgG1 P329G) was 0.0375 nM, the koff (T-01 MB IgG1 P329G) was 2.49e-05 s⁻¹ and the kon (T-01 MB IgG1 P329G) was 665000 M⁻¹ s⁻¹. For the same binder, the Kd [3] was 0.0297 nM, the koff [3] was 1.66e-05 s⁻¹ and the kon [3] was 558000 M⁻¹ s⁻¹.

B2: human FcγRIIa (hFcγRIIa) (receptor, UniProt P12318 34-217, looked up)
chain: QAAAPPKAVLKLEPPWINVLQEDSVTLTCQGARSPESDSIQWFHNGNLIPTHTQPSYRFKANNNDSGEYTCQTGQTSLSDPVHLTVLSEWLVLQTPHLEFQEGETIMLRCHSWKDKPLVKVTFFQNGKSQKFSHLDPTFSIPQANHSHSGDYHCTGNIGYTLFSSKPVTITVQVPSMGSSSPMG
B2: no binding (tested: serial dilutions 20-0.65 nM) [1]; no binding (tested: serial dilutions 20-0.65 nM) (T-01 MB IgG2 K288A P329G); no binding (tested: serial dilutions 20-0.65 nM) (T-01 MB IgG1 LALAP K288A). B2: no binding (tested: serial dilutions 20-0.65 nM) (T-01 MB IgG1 LALAP I253A); no binding (tested: serial dilutions 20-0.65 nM) (T-01 MB.v2 IgG1 WT); no binding (tested: serial dilutions 20-0.65 nM) [2]. For the same binder, the Kd (T-01 MB IgG1 WT) was under 0.001 nM, the koff (T-01 MB IgG1 WT) was under 1e-07 s⁻¹ and the kon (T-01 MB IgG1 WT) was 963000 M⁻¹ s⁻¹. The Kd (T-01 MB IgG2 WT) was 0.606 nM, the koff (T-01 MB IgG2 WT) was 0.000263 s⁻¹ and the kon (T-01 MB IgG2 WT) was 433000 M⁻¹ s⁻¹. For the same binder, the Kd (T-01 MB IgG4 WT) was 0.391 nM, the koff (T-01 MB IgG4 WT) was 0.000445 s⁻¹ and the kon (T-01 MB IgG4 WT) was 1.14e+06 M⁻¹ s⁻¹. For the same binder, the Kd (T-01 MB IgG1 I253A) was under 0.001 nM, the koff (T-01 MB IgG1 I253A) was under 1e-07 s⁻¹ and the kon (T-01 MB IgG1 I253A) was 763000 M⁻¹ s⁻¹. The Kd (T-01 MB IgG1 I253V) was under 0.001 nM, the koff (T-01 MB IgG1 I253V) was under 1e-07 s⁻¹ and the kon (T-01 MB IgG1 I253V) was 1.09e+06 M⁻¹ s⁻¹. The Kd (T-01 MB IgG1 K288A) was under 0.001 nM, the koff (T-01 MB IgG1 K288A) was under 1e-07 s⁻¹ and the kon (T-01 MB IgG1 K288A) was 1.07e+06 M⁻¹ s⁻¹. It also gave a Kd (T-01 MB IgG1 P329G) of 0.249 nM, a koff (T-01 MB IgG1 P329G) of 5.53e-05 s⁻¹ and a kon (T-01 MB IgG1 P329G) of 222000 M⁻¹ s⁻¹. It also gave a Kd [3] of 0.208 nM, a koff [3] of 0.000121 s⁻¹ and a kon [3] of 581000 M⁻¹ s⁻¹.

B3: human FcγRIIb (hFcγRIIb) (receptor, UniProt P31994 43-217, looked up)
chain: TPAAPPKAVLKLEPQWINVLQEDSVTLTCRGTHSPESDSIQWFHNGNLIPTHTQPSYRFKANNNDSGEYTCQTGQTSLSDPVHLTVLSEWLVLQTPHLEFQEGETIVLRCHSWKDKPLVKVTFFQNGKSKKFSRSDPNFSIPQANHSHSGDYHCTGNIGYTLYSSKPVTITVQAP
B3: no binding (tested: serial dilutions 20-0.65 nM) [1]; no binding (tested: serial dilutions 20-0.65 nM) (T-01 MB IgG2 K288A P329G); no binding (tested: serial dilutions 20-0.65 nM) (T-01 MB IgG1 LALAP K288A). B3: no binding (tested: serial dilutions 20-0.65 nM) (T-01 MB IgG1 LALAP I253A); no binding (tested: serial dilutions 20-0.65 nM) (T-01 MB.v2 IgG1 WT); no binding (tested: serial dilutions 20-0.65 nM) [2]. It also gave a Kd (T-01 MB IgG1 WT) of under 0.001 nM, a koff (T-01 MB IgG1 WT) of under 1e-07 s⁻¹ and a kon (T-01 MB IgG1 WT) of 1.19e+06 M⁻¹ s⁻¹. For the same binder, the Kd (T-01 MB IgG2 WT) was 1.61 nM, the koff (T-01 MB IgG2 WT) was 0.00103 s⁻¹ and the kon (T-01 MB IgG2 WT) was 637000 M⁻¹ s⁻¹. It also gave a Kd (T-01 MB IgG4 WT) of 0.223 nM, a koff (T-01 MB IgG4 WT) of 0.000305 s⁻¹ and a kon (T-01 MB IgG4 WT) of 1.37e+06 M⁻¹ s⁻¹. It also gave a Kd (T-01 MB IgG1 I253A) of under 0.001 nM, a koff (T-01 MB IgG1 I253A) of under 1e-07 s⁻¹ and a kon (T-01 MB IgG1 I253A) of 1.39e+06 M⁻¹ s⁻¹. It also gave a Kd (T-01 MB IgG1 I253V) of under 0.001 nM, a koff (T-01 MB IgG1 I253V) of under 1e-07 s⁻¹ and a kon (T-01 MB IgG1 I253V) of 1.39e+06 M⁻¹ s⁻¹. The Kd (T-01 MB IgG1 K288A) was under 0.001 nM, the koff (T-01 MB IgG1 K288A) was under 1e-07 s⁻¹ and the kon (T-01 MB IgG1 K288A) was 1.25e+06 M⁻¹ s⁻¹. For the same binder, the binding result (T-01 MB IgG1 P329G) was “no binding (tested: serial dilutions 20-0.65 nM)”, the Kd [3] was 0.607 nM and the koff [3] was 0.000394 s⁻¹. It also gave a kon [3] of 649000 M⁻¹ s⁻¹.
